Data published in patent publication US20120219551A1.

Key:
CD16A(F158) (human) = CD16A(F158) (human) (UniProt P08637); assay: relative off-rate wt/variant; method not given (BIAcore elsewhere)
CD32B-G2Ag (human) = CD32B-G2Ag (human) (UniProt P31994); assay: as above
CD16A(V158) (human) = CD16A(V158) (human) (UniProt P08637); assay: as above
CD32A-G2Ag (human) = CD32A-G2Ag (human) (UniProt P12318); assay: as above
[1] = molecular target: FcγRIIB, soluble dimeric protein (extracellular domain fused to the hinge-CH2-CH3 domain of human IgG2) (human) (UniProt P31994); assay: ELISA
[2] = molecular target: FcγRIIIA, soluble monomeric protein (extracellular region joined to the linker-AVITAG sequence) (human) (UniProt P08637); assay: ELISA
[3] = molecular target: FcγRIIIA on natural killer cells of human donor PBMC (human) (UniProt P08637); assay: cell-based or functional assay
[4] = molecular target: soluble monomeric FcγRIIIA 158V (extracellular region joined to linker-AVITAG) (human) (UniProt P08637); assay: SPR (BIAcore), Fc mutant in ch4-4-20, off rate relative to wild type
[5] = molecular target: soluble dimeric FcγRIIB-Fc fusion protein (extracellular domain of FcγRIIB fused to hinge-CH2-CH3 of human IgG2) (human) (UniProt P31994); assay: as above
[6] = molecular target: soluble dimeric FcγRIIB-Fc fusion protein (extracellular domain of FcγRIIB fused to hinge-CH2-CH3 of human IgG2) (human) (UniProt P31994); assay: SPR (BIAcore), Ab captured on BSA-FITC, separate fit 200/800 nM
[7] = molecular target: soluble monomeric FcγRIIIA (extracellular region of FcγRIIIA joined to the linker-AVITAG sequence) (human) (UniProt P08637); assay: ELISA
[8] = molecular target: soluble dimeric FcγRIIB-Fc fusion protein (extracellular domain of FcγRIIB fused to hinge-CH2-CH3 of human IgG2) (human) (UniProt P31994); assay: ELISA

FcγRIIB, soluble dimeric protein (extracellular domain fused to the hinge-CH2-CH3 domain of human IgG2) (human), sequence (P31994 43-217): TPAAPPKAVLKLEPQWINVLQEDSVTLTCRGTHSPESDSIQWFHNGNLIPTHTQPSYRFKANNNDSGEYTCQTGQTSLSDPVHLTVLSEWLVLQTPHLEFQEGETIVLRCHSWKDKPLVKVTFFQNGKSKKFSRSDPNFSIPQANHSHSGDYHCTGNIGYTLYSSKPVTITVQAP
soluble dimeric FcγRIIB-Fc fusion protein (extracellular domain of FcγRIIB fused to hinge-CH2-CH3 of human IgG2) (human), sequence (P31994 43-217): as above
FcγRIIIA on natural killer cells of human donor PBMC (human), sequence (P08637 17-254): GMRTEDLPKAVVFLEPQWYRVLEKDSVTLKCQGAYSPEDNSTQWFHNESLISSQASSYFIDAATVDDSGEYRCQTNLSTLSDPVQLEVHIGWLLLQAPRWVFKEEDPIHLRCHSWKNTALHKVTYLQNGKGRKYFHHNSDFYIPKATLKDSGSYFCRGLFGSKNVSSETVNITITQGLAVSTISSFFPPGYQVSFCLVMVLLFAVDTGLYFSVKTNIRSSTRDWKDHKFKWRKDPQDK
soluble monomeric FcγRIIIA 158V (extracellular region joined to linker-AVITAG) (human), sequence (P08637 17-208 F176V): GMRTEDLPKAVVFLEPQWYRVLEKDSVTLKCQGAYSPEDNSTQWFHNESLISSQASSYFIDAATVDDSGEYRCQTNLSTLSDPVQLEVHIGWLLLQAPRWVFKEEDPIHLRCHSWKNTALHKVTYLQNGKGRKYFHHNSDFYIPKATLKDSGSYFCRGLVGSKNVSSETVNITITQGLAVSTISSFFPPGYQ
CD32B-G2Ag (human), sequence (P31994 43-217): as the sequence (P31994 43-217) above
CD16A(F158) (human), sequence (P08637 17-208): as the sequence (P08637 17-208 F176V) above, with V160F counted along it
FcγRIIIA, soluble monomeric protein (extracellular region joined to the linker-AVITAG sequence) (human), sequence (P08637 17-208 F176V limits assumed): as the sequence (P08637 17-208 F176V) above
CD16A(V158) (human), sequence (P08637 17-208 F176V): as above
CD32A-G2Ag (human), sequence (P12318 34-217): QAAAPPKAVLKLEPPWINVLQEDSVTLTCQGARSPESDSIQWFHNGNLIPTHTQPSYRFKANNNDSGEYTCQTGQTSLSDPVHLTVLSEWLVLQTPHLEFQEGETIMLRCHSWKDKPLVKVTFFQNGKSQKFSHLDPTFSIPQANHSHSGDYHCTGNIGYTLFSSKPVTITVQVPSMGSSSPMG
soluble monomeric FcγRIIIA (extracellular region of FcγRIIIA joined to the linker-AVITAG sequence) (human), sequence (P08637 17-208): as the sequence (P08637 17-208 F176V) above, with V160F counted along it

Q: With “Antibody 2B6 3.5 Fc Variant 48 (F243L, R292P, V305I)” as the substance, how does the Koff ratio (wt/mut) (CD16A(F158) (human)) read?
A: 1.4 wt/mut

Q: What about the Koff ratio (wt/mut) (CD32B-G2Ag (human)) of the same substance?
A: 0.2 wt/mut

Q: And the Koff ratio (wt/mut) (CD16A(V158) (human))?
A: 2.6 wt/mut

Q: And the Koff ratio (wt/mut) (CD32A-G2Ag (human))?
A: 0.1 wt/mut

Q: How did the Koff ratio (wt/mut) (CD16A(F158) (human)) turn out when “Antibody ch2.4G2 Fc Variant 51 (F243L, R292P, Y300L, V305I, P396L)” was run?
A: 8.3 wt/mut

Q: What about the Koff ratio (wt/mut) (CD32B-G2Ag (human)) of the same substance?
A: 3.2 wt/mut

Q: What about the Koff ratio (wt/mut) (CD16A(V158) (human)) of the same substance?
A: 10.1 wt/mut

Q: What about the Koff ratio (wt/mut) (CD32A-G2Ag (human)) of the same substance?
A: 1.4 wt/mut

Q: For “Fc variant D221Y, M252I, A330G, A339T, T359N, V422I, H433L (antibody)”, which fold change vs WT [1] is on record?
A: 6 fold

Q: For “Fc variant D399E, R292L, V185M (antibody)”, which fold change vs WT [1] is on record?
A: 0.5 fold

Q: Fc variant E258D, N384K (antibody) was tested. Which fold change vs WT [1] did it give?
A: 4 fold

Q: And the fold change vs WT [2]?
A: 1.25 fold

Q: With “Fc variant K317N, F423-deleted (antibody)” as the substance, how does the fold change vs WT [1] read?
A: 7 fold

Q: Fc variant K370N, S440N (antibody) was tested. Which fold change vs WT [1] did it give?
A: 3.5 fold

Q: Fc variant S415I, L251F (antibody) was tested. Which fold change vs WT [1] did it give?
A: 0.75 fold

Q: And the fold change vs WT [2]?
A: 0.5 fold

Q: For ch4-4-20 MgFc37 (K248M) (antibody), which Relative rate of lysis (ADCC, vs wild type ch4-4-20) [3] is on record?
A: 3.83

Q: What about the Koff WT/Mut [4] of the same substance?
A: 0.977

Q: And the Koff WT/Mut [5]?
A: 1.03

Q: For “ch4-4-20 MgFc38 (K392T, P396L) (antibody)”, which Relative rate of lysis (ADCC, vs wild type ch4-4-20) [3] is on record?
A: 3.07

Q: What about the Koff WT/Mut [4] of the same substance?
A: 1.64

Q: What about the Koff WT/Mut [5] of the same substance?
A: 2.3

Q: Which results are given for “ch4-4-20 MgFc39 (E293V, Q295E, A327T) (antibody)”?
A: Relative rate of lysis (ADCC, vs wild type ch4-4-20) [3]: 4.29; Koff WT/Mut [4]: 0.86; Koff WT/Mut [5]: 1.3

Q: What does the source list for “ch4-4-20 MgFc41 (H268N, P396L) (antibody)”?
A: Relative rate of lysis (ADCC, vs wild type ch4-4-20) [3]: 2.24; Koff WT/Mut [4]: 0.92; Koff WT/Mut [5]: 1.04

Q: Which results are given for “ch4-4-20 MgFc43 (Y319F, P352L, P396L) (antibody)”?
A: Relative rate of lysis (ADCC, vs wild type ch4-4-20) [3]: 1.09; Koff WT/Mut [4]: 1.23; Koff WT/Mut [5]: 2.29

Q: Which results are given for “ch4-4-20 MgFc43b (K288R, T307A, K344E, P396L) (antibody)”?
A: Relative rate of lysis (ADCC, vs wild type ch4-4-20) [3]: 3.3; Koff WT/Mut [4]: 1.27; Koff WT/Mut [5]: 0.89

Q: For “ch4-4-20 MgFc49 (K261N, K210M, P396L) (antibody)”, which Relative rate of lysis (ADCC, vs wild type ch4-4-20) [3] is on record?
A: 2.06

Q: And the Koff WT/Mut [4]?
A: 1.29

Q: What about the Koff WT/Mut [5] of the same substance?
A: 0.85

Q: Which results are given for “ch4-4-20 Mut10 (P396L, A330S, K288N) (antibody)”?
A: Kd [6]: 41.3 nM; ADCC, % [3]: 41%; ELISA, OD [7]: 1 OD; ELISA, OD [8]: 1.2 OD
